Values of other authors in US20200069786A1, “COMPOSITION AND PROCESS FOR PREPARING VACCINE” (TREOS BIO ZRT., priority 2018, published 2020).
Read-outs that look alike come from different tables or passages of the source.

B1: FATE1 (protein, UniProt Q969F0 1-183, looked up)
Fetal and adult …: MAGGPPNTKAEMEMSLAEELNHGRQGENQEHLVIAEMMELGSRSRGASQKKQKLEQKAAGSASAKRVWNMTATRPKKMGSQLPKPRMLRESGHGDAHLQEYAGNFQGIRFHYDRNPGTDAVAQTSLEEFNVLEMEVMRRQLYAVNRRLRALEEQGATWRHRETLIIAVLVSASIANLWLWMNQ
B2: ACRBP (protein, UniProt Q8NEB7 26-543, looked up)
Acrosin-binding protein: QDSTQASTPGSPLSPTEYERFFALLTPTWKAETTCRLRATHGCRNPTLVQLDQYENHGLVPDGAVCSNLPYASWFESFCQFTHYRCSNHVYYAKRVLCSQPVSILSPNTLKEIEASAEVSPTTMTSPISPHFTVTERQTFQPWPERLSNNVEELLQSSLSLGGQEQAPEHKQEQGVEHRQEPTQEHKQEEGQKQEEQEEEQEEEGKQEEGQGTKEGREAVSQLQTDSEPKFHSESLSSNPSSFAPRVREVESTPMIMENIQELIRSAQEIDEMNEIYDENSYWRNQNPGSLLQLPHTEALLVLCYSIVENTCIITPTAKAWKYMEEEILGFGKSVCDSLGRRHMSTCALCDFCSLKLEQCHSEASLQRQQCDTSHKTPFVSPLLASQSLSIGNQVGSPESGRFYGLDLYGGLHMDFWCARLATKGCEDVRVSGWLQTEFLSFQDGDFPTKICDTDYIQYPNYCSFKSQQCLMRNRNRKVSRMRCLQNETYSALSPGKSEDVVLRWSQEFSTLTLGQFG
B3: MAGE-B1 (protein, UniProt P43366 1-347, looked up)
Melanoma-associated antigen B1: MPRGQKSKLRAREKRRKAREETQGLKVAHATAAEKEECPSSSPVLGDTPTSSPAAGIPQKPQGAPPTTTAAAAVSCTESDEGAKCQGEENASFSQATTSTESSVKDPVAWEAGMLMHFILRKYKMREPIMKADMLKVVDEKYKDHFTEILNGASRRLELVFGLDLKEDNPSGHTYTLVSKLNLTNDGNLSNDWDFPRNGLLMPLLGVIFLKGNSATEEEIWKFMNVLGAYDGEEHLIYGEPRKFITQDLVQEKYLKYEQVPNSDPPRYQFLWGPRAYAETTKMKVLEFLAKMNGATPRDFPSHYEEALRDEEERAQVRSSVRARRRTTATTFRARSRAPFSRSSHPM
B4: WBP2NL (protein, UniProt Q6ICG8 1-309, looked up)
Postacrosomal sheath WW …: MAVNQSHTENRRGALIPNGESLLKRSPNVELSFPQRSEGSNVFSGRKTGTLFLTSYRVIFITSCSISDPMLSFMMPFDLMTNLTVEQPVFAANFIKGTIQAAPYGGWEGQATFKLVFRNGDAIEFAQLMVKAASAAARGFPLRTLNDWFSSMGIYVITGEGNMCTPQMPCSVIVYGAPPAGYGAPPPGYGAPPAGYGAQPVGNEGPPVGYRASPVRYGAPPLGYGAPPAGYGAPPLGYGAPPLGYGTPPLGYGAPPLGYGAPPAGNEGPPAGYRASPAGSGARPQESTAAQAPENEASLPSASSSQVHS
B5: MAGE-A6 (protein, UniProt P43360 1-314, looked up)
Melanoma-associated antigen 6: MPLEQRSQHCKPEEGLEARGEALGLVGAQAPATEEQEAASSSSTLVEVTLGEVPAAESPDPPQSPQGASSLPTTMNYPLWSQSYEDSSNQEEEGPSTFPDLESEFQAALSRKVAKLVHFLLLKYRAREPVTKAEMLGSVVGNWQYFFPVIFSKASDSLQLVFGIELMEVDPIGHVYIFATCLGLSYDGLLGDNQIMPKTGFLIIILAIIAKEGDCAPEEKIWEELSVLEVFEGREDSIFGDPKKLLTQYFVQENYLEYRQVPGSDPACYEFLWGPRALIETSYVKVLHHMVKISGGPRISYPLLHEWALREGEE
B6: MAGE-B2 (protein, UniProt O15479 1-319, looked up)
Melanoma-associated antigen B2: MPRGQKSKLRAREKRRKARDETRGLNVPQVTEAEEEEAPCCSSSVSGGAASSSPAAGIPQEPQRAPTTAAAAAAGVSSTKSKKGAKSHQGEKNASSSQASTSTKSPSEDPLTRKSGSLVQFLLYKYKIKKSVTKGEMLKIVGKRFREHFPEILKKASEGLSVVFGLELNKVNPNGHTYTFIDKVDLTDEESLLSSWDFPRRKLLMPLLGVIFLNGNSATEEEIWEFLNMLGVYDGEEHSVFGEPWKLITKDLVQEKYLEYKQVPSSDPPRFQFLWGPRAYAETSKMKVLEFLAKVNGTTPCAFPTHYEEALKDEEKAGV
B7: IGFS11 (protein, UniProt Q5DX21 23-431, looked up)
Immunoglobulin superfamily …: LEVSESPGSIQVARGQPAVLPCTFTTSAALINLNVIWMVTPLSNANQPEQVILYQGGQMFDGAPRFHGRVGFTGTMPATNVSIFINNTQLSDTGTYQCLVNNLPDIGGRNIGVTGLTVLVPPSAPHCQIQGSQDIGSDVILLCSSEEGIPRPTYLWEKLDNTLKLPPTATQDQVQGTVTIRNISALSSGLYQCVASNAIGTSTCLLDLQVISPQPRNIGLIAGAIGTGAVIIIFCIALILGAFFYWRSKNKEEEEEEIPNEIREDDLPPKCSSAKAFHTEISSSDNNTLTSSNAYNSRYWSNNPKVHRNTESVSHFSDLGQSFSFHSGNANIPSIYANGTHLVPGQHKTLVVTANRGSSPQVMSRSNGSVSRKPRPPHTHSYTISHATLERIGAVPVMVPAQSRAGSLV
B8: CAGE1 (protein, UniProt Q8TC20 1-777, looked up)
Cancer-associated gene 1 …: MNKDYQKFWSSPSDPVHFEVDTSHEKVESMSESDTMNVSNLSQGVMLSHSPICMETTGTTCDLPQNEIKNFERENEYESTLCEDAYGTLDNLLNDNNIENYSTNALIQPVDTISISSLRQFETVCKFHWVEAFDDEMTEKPEFQSQVYNYAKDNNIKQDSFKEENPMETSVSANTDQLGNEYFRQPPPRSPPLIHCSGEMLKFTEKSLAKSIAKESALNPSQPPSFLCKTAVPSKEIQNYGEIPEMSVSYEKEVTAEGVERPEIVSTWSSAGISWRSEACRENCEMPDWEQSAESLQPVQEDMALNEVLQKLKHTNRKQEVRIQELQCSNLYLEKRVKELQMKITKQQVFIDVINKLKENVEELIEDKYKIILEKNDTKKTLQNLEEVLANTQKHLQESRNDKEMLQLQFKKIKANYVCLQERYMTEMQQKNKSVSQYLEMDKTLSKKEEEVERLQQLKKELEKATASALDLLKREKEAQEQEFLSLQEEFQKLEKENLEERQKLKSRLEKLLTQVRNLQFMSENERTKNIKLQQQINEVKNENAKLKQQVARSEEQNYVPKFETAQLKDQLEEVLKSDITKDTKTTHSNLLPDCSPCEERLNPADIKRASQLASKMHSLLALMVGLLTCQDIINSDAEHFKESEKVSDIMLQKLKSLHLKKKTLDKEVIDCDSDEAKSIRDVPTLLGAKLDKYHSLNEELDFLVTSYEEIIECADQRLAISHSQIAHLEERNKHLEDLIRKPREKARKPRSKSLENHPKSMTMMPALFKENRNDLD
B9: TEKT5 (protein, UniProt Q96M29 1-485, looked up)
Tektin-5: MEFLGTTQTASYCGPKKCCGLTSLPAVQAPVIQECYQPYYLPGYRYLNSWRPSLFYKIANVQTCPDESTSTLRPPTILPTLRSALFSRYSPHDWDQSNQLQVRGAEASRLWASRLTDDSMRLLQDKDQLTHQMQEGTCRNLGQRLSDIGFWKSELSYELDRLLTENQNLETVKRRLECAANEVNCPLQVALECLYHREKRIGIDLVHDNVEKNLIREVDLLKCCQEQMRKLAQRIDIQMRDNRDAQHVLERDLEDKSSAQCIDEKCFNLRNTSDCISFFHGMEKIDGTISVPETWAKFSNDNIKHSQNMRANSIQLREEAEHLFETLSDQMWRQFTDTNLAFNARISEVTDVKNKLQTQLAKTLQEIFQAENTIMLLERSIMAKEGPLKVAQTRLECRTRRPNMELCRDIPQLKLVNEVFTIDDTLQTLKLRLRETQDTLQLLVMTKCRLEHELAIKANTLCIDKEKCMGMRKTFPCTPRLVGHT
B10: MAGE-A8 (protein, UniProt P43361 1-318, looked up)
Melanoma-associated antigen 8: MLLGQKSQRYKAEEGLQAQGEAPGLMDVQIPTAEEQKAASSSSTLIMGTLEEVTDSGSPSPPQSPEGASSSLTVTDSTLWSQSDEGSSSNEEEGPSTSPDPAHLESLFREALDEKVAELVRFLLRKYQIKEPVTKAEMLESVIKNYKNHFPDIFSKASECMQVIFGIDVKEVDPAGHSYILVTCLGLSYDGLLGDDQSTPKTGLLIIVLGMILMEGSRAPEEAIWEALSVMGLYDGREHSVYWKLRKLLTQEWVQENYLEYRQAPGSDPVRYEFLWGPRALAETSYVKVLEHVVRVNARVRISYPSLHEEALGEEKGV

Test system: TSA
[1] = TSA expression rate in GASTRIC cancer
[2] = TSA expression rate in LUNG cancer
[3] = TSA expression rate in BLADDER cancer
[4] = TSA expression rate in PROSTATE cancer
[5] = TSA expression rate in MELANOMA
[6] = TSA expression rate in HEAD and NECK

Molecule | TSA Expression Rate (ER) (HCC) | Expression Rate (ER) % (TSA expression rate in CRC) | Expression Rate (ER) % [1] | Expression Rate (ER) % [2] | TSA Expression Rate (ER) (BREAST) | TSA Expression Rate (ER) (LUNG) | TSA Expression Rate (ER) (OVARIAN) | Expression Rate (ER) % [3] | Expression Rate (ER) % (TSA expression rate in Kidney) | Expression Rate (ER) % [4] | TSA Expression Rate (ER) (BRAIN) | Expression Rate (ER) % (TSA expression rate in LEUKEMIAS) | Expression Rate (ER) % [5] | Expression Rate (ER) % (TSA expression rate in Esophageal) | Expression Rate (ER) % [6] | Expression Rate (ER) % (TSA expression rate in PEDIATRIC) | Expression Rate (ER) % (TSA expression rate in Cervical cancer)
B1 | 49% | 21% | 2% | 0% |  |  |  |  |  |  |  |  |  |  |  |  | 
B2 | 70% | 63% | 0% |  | 40% | 20% | 65% | 28% | 0% | 4% |  |  |  |  |  |  | 
B3 | 47% | 0% |  | 13% |  |  |  | 0% | 0% | 0% | 0% | 5% | 19% |  |  |  | 
B4 |  |  |  |  | 50% |  |  |  |  |  |  |  |  |  |  |  | 
B5 | 36% | 22% |  |  | 15% | 51% |  | 25% | 0% | 23% |  |  | 65% | 68% | 58% | 80% | 
B6 | 61% | 0% | 0% |  |  | 43% |  | 0% | 0% | 0% | 0% |  | 22% |  | 45% |  | 
B7 | 60% |  | 88% |  |  |  |  |  |  |  |  |  |  |  |  |  | 
B8 | 39% | 74% | 77% | 14% |  |  |  |  |  |  |  |  |  |  |  |  | 98%
B9 | 60% | 50% | 40% | 10% |  |  |  |  |  | 11% |  |  |  |  | 0% |  | 
B10 | 45% | 44% |  |  |  |  |  | 57% |  |  |  |  | 10% |  |  |  | 
